Here are results for one substance from patent US11717557B2, “Use of PRG4 as an anti-inflammatory agent” (Lubris LLC, priority 2015, dated 2023).

The target in experiment [1] is T1, CD44 IgG1Fc (Homo sapiens, UniProt P16070).
T1 construct: purchased R & D systems
Put plainly: Direct ELISA: binding of coated macromolecules to CD44-IgG1Fc versus IgG1Fc. Conditions: wells coated at 400 μg/mL; CD44-IgG1Fc or IgG1Fc 1 μg/mL; p<0.001 where significant. The procedure:
(§1) High-binding microtiter plates (Corning, Sigma Aldrich, USA) were coated with rhPRG4 (Mr≅240 KDa), high molecular weight HA (HMW HA; Mr≈1,500 KDa) (R & D System, USA), medium molecular weight HA (MMW HA; Mr≈300 KDa) (R & D System) and vitronectin (Mr≅75 KDa) (Sigma Aldrich) at 400 μg/mL in PBS buffer (100 μL per well) overnight at 4° C. rhPRG4 is a full-length product produced by CHO-M cells (Lubris, Framingham, Mass., USA). Following washing with PBS+0.1% Tween 20, wells were blocked with 2% bovine serum albumin (BSA; 300 μL per well) for at least 2 hours at room temperature. CD44-IgG1Fc (R & D systems) or IgG1Fc (R & D systems), each at 1 μg/mL (100 μl per well), were added to the plate and incubated for 60 min at room temperature. Following washing with PBS+0.1% tween 20, anti-IgG1Fc-HRP (Sigma Aldrich) was added at 1:10,000 dilution (100 μL per well) and incubated for 60 min at room temp. Following washing with PBS+0.1% tween 20, the assay was developed using 1-step Turbo TMB ELISA reagent (ThermoScientific, USA) and absorbance was measured at 450 nm. The data represents an average of 4 independent assays, each with triplicate wells per group.

The target in experiment [2] is T2, CD44 (Homo sapiens, UniProt P16070).
T2 construct: purchased R & D systems
Kind of experiment: Concentration-dependent binding to CD44, direct ELISA. The protocol:
as §1
The concentration-dependent binding of rhPRG4, HMW HA and MMW HA to CD44 was performed by coating microtiter plates with 400, 200, 100, 20, 4, 2 and 0.1 μg/mL of the macromolecules. The assay was performed as described above. The absorbance values in the IgG1Fc wells were subtracted from the absorbance values in the CD44 IgG1Fc wells and the corrected CD44 IgG1Fc absorbance values were normalized to those of the 400 μg/mL rhPRG4 group and data was expressed as percentage binding to CD44. The concentration-dependent binding of rhPRG4, HMW HA and MMW HA to recombinant CD44 is depicted in FIG. 1B. […] The data represents an average of 4 independent assays, each with triplicate wells per group.

For experiment [3], the target named is T1, CD44 IgG1Fc. Kind of experiment: Surface plasmon resonance binding of rhPRG4 to CD44 and competition with HMW HA. The procedure:
Binding of rhPRG4 to CD44-IgG1Fc was investigated using surface plasmon resonance (Biacore T100, GE Healthcare Lifesciences, NJ, USA). Series S chips were functionalized using the human antibody capture kit (GE Life Sciences) and either CD44-IgG1Fc or IgG1FC was allowed to bind to the surface of the functionalized chips in flow cell 1 (Fc1) and flow cell 2 (Fc2), respectively. rhPRG4 was injected at 30 μL/min for 8 min at concentrations of 300, 250, 200, 150, 100 and 50 μg/mL followed by a 10 min dissociation using 0.1M HEPES, 1.5M NaCl, 30 mM EDTA, and 0.5% P20 (GE Life Sciences). The surface of the chip was regenerated at the end of each cycle with 1 min pulse of 3M MgCl2. Each analyte concentration was injected in duplicate. The resulting curves were double referenced (i.e. Fc2-Fc1, followed by subtraction of the 0 μg/mL curve). The binding kinetics and binding affinity were determined by BiaEvaluation software, using 1:1 binding/conformational change model or by steady-state equilibrium, respectively. To study the competition between rhPRG4 and HMW HA in binding to CD44, rhPRG4 was injected at concentrations ranging between 0 and 300 μg/mL as described above. Following the end of dissociation phase, HMW HA was injected at 50 μg/mL (30 μL per min) for 1 min. […]

In experiment [4] the test system is whole citrated blood. Put plainly: Lubricin alone, inflammatory cytokines in whole blood. In kind it is cell-based, human. Conditions: lubricin 0.57 mg/mL, 60 minutes; versus saline control. The procedure: Utilizing the same approach the effect of lubricin on the generation of inflammatory cytokines in whole blood was also studied using similar experimental settings. In these studies the effect of lubricin (0.57 mg/mL) was studied by supplementing it to the whole citrated blood drawn from the normal healthy volunteers. The samples were profiled for inflammatory cytokine levels along with a saline control in samples incubated for 60 minutes. Whole blood was centrifuged to obtain plasma which was profiled for various inflammatory cytokines using high sensitivity cytokine assay.

Experiment [5] in a line: Serum cytokine levels after DMM surgery and intraarticular lubricin. The format is in vivo, rat. Conditions: single intraarticular dose 200 μg/kg seven days after DMM surgery; samples 3 weeks after dose; versus saline. The procedure: In order to determine if lubricin could modulate pro-inflammatory cytokine levels in vivo, a rat model was used. Nine rats were subject to surgery to destabilize the medial meniscus (DMM surgery). Seven days after surgery, each rat received a single intraarticular dose of lubricin of 200 μg/kg. Control rats received an injection of an equal volume of saline. Cytokine levels in serum samples taken from the […] were compared with […] who received surgery but no dose of lubricin post-surgery. Samples were drawn 3 weeks after the dose of lubricin was administered and analyzed using the Luminex Multiplex platform. The results are shown in FIG. 13 where the measured levels of EPO, IL-13, IL-10, IL-18, IL-1α, IL-2, MCSF, IL-1β, IL-4, IFN-γ, MIP-3α, GMCSF, IL-7, TNF-α, VEGF, MCP-1, IL-5, G-CSF, RANTES, IL-6, GRO, IL-17α, and IL-12p70 are shown. The levels of IL-18, MCSF, MCP-1, RANTES, and GRO were all reduced in rats receiving lubricin as compared to rats that were injected with saline alone.

“rhPRG4: full-length recombinant human PRG4 (lubricin) glycoprotein produced by CHO-M cells (Lubris), Mr≅240 KDa”: in experiment [1], the “450 nm absorbance in the CD44-IgG1Fc group versus the IgG1Fc group” value is “significantly higher”. The “affinity of concentration-dependent binding to CD44” value in experiment [2] was “comparable affinity to HMW HA”. Also, the “percentage CD44 binding, difference between rhPRG4, HMW HA and MMW HA-coated wells” value in experiment [2] (coating 0.1 μg/mL) was “no significant differences”. Besides, in experiment [2] (coating 200 μg/mL, p<0.001), the “percentage recombinant CD44 binding compared to MMW HA coated wells” value is given as “significantly higher”. Also, the “percentage recombinant CD44 binding compared to HMW HA or MMW HA-coated wells” value in experiment [2] (coating 400, 100, 20, 4 and 2 μg/mL, p<0.001) is listed as “significantly higher”. In addition, the Kd in experiment [3] (immobilized CD44-IgG1Fc, based on a rhPRG4 molecular weight of 240 KDa, read-out: apparent Kd) was ~38 nM. For the same substance, in experiment [3] (rhPRG4 0-300 μg/mL, then HMW HA 50 μg/mL, inverse relationship of binding signals), the “effect on binding of HMW HA to recombinant CD44” value was “interfered with binding of HMW HA”. Moreover, in experiment [4], the “VEGF, IL8, IL6 and IL10” value is “most prominent decrease”; the “production of IL-4, IL-6, IL-8, IL-10, VEGF, TNF-α, IL-1β, MCP-1 and EGF” value is “decrease”. In addition, the “serum levels of IL-18, MCSF, MCP-1, RANTES and GRO” value in experiment [5] was “reduced”.
